Data: patent US20220098319A1 (SHANGHAI PHARMAEXPLORER, published 2022)
Substitutions are numbered along the chain they refer to.

T1: human CD73 (full length, on transfected CHOK1 cells) (human, UniProt P21589 27-549)
T1 sequence (looked up): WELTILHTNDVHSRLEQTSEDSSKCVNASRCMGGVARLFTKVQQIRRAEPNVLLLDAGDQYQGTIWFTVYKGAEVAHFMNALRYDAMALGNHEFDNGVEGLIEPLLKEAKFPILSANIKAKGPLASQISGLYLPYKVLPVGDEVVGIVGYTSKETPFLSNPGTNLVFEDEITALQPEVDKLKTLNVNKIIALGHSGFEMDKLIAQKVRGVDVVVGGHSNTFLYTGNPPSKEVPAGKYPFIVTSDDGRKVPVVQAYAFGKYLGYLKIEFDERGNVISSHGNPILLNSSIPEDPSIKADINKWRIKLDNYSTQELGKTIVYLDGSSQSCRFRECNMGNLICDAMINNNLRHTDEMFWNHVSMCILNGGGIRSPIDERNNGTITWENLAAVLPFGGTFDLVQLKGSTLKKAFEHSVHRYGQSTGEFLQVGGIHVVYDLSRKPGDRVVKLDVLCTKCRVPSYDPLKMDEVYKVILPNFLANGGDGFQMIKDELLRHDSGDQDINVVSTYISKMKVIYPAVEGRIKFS

T2: cynomolgus monkey CD73 (on transfected CHOK1 cells) (cynomolgus monkey, UniProt A0A2K5V5U7 27-549)
T2 construct: whole, on cells; also called CHOK1-cCD73; CHOK1-CCD73
T2 sequence: T1 sequence (looked up) with M199T, T350A, V466I

T3: murine CD73 (on transfected CHOK1 cells) (mouse, UniProt Q61503 29-551)
T3 construct: whole, on cells; also called CHOK1-mCD73; mCD73
T3 sequence (looked up): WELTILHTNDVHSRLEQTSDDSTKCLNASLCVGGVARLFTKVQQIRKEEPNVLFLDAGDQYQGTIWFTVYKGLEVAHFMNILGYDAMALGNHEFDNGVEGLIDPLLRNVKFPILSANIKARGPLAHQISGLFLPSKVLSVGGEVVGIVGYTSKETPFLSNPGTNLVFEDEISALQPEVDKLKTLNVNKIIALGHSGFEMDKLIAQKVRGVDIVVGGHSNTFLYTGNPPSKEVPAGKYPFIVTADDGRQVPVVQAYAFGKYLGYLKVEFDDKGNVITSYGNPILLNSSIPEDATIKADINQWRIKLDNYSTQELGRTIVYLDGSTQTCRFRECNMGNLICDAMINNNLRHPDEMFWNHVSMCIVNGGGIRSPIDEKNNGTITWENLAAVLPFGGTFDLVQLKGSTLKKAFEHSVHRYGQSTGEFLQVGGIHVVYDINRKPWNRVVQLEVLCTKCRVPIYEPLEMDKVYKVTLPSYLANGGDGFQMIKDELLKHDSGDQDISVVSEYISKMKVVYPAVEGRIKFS

T4: His-tagged CD73 extracellular domain protein (hCD73 ECD-His) (human, UniProt P21589 27-547)
T4 construct: Expressed in CHO cells from pTT5-hCD73 ECD-His6, purified on nickel column; also called hCD73 ECD-His6; human CD73 ECD
T4 sequence: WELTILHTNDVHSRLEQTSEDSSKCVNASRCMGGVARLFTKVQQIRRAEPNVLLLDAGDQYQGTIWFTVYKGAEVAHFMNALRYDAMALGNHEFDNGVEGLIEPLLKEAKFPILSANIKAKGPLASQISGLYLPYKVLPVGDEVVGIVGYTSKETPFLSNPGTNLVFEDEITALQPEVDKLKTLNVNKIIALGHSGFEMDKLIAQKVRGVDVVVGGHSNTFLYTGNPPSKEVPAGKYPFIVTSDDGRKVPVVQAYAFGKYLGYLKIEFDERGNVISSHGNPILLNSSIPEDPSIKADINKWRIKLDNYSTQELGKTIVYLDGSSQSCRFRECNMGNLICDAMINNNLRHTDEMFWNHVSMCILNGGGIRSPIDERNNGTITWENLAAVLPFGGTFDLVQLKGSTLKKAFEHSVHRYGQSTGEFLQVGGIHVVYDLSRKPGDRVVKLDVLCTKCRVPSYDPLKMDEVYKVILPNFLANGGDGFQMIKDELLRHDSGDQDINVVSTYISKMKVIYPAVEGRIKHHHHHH

B1: mab036xhIgG1TM (clone 66H6C12), mouse-human chimeric anti-CD73 antibody (antibody, V domains shown)
VH: QVQLQQSGAEVVKPGASVKISCKASGYVFSSYWINWVKQRPGKGLEWIGKIFPGNGDTDYNGNFKGKATLTADKSSSTAYMQLSSLTSEDSAVYFCAGFADWGQGTLVTVSA
VL: DIQMTQSPSSLSASLGERVSLTCRASQDIGERLIWLQQEPDGTFKRLIYATSSLDSGVPKRFSGSSSGSDYSLTISRLESEDFVDYYCLQYASSPYTFGGGTKLEIK
notes: also called mAb036 chimeric antibody
B2: mab032xhIgG1TM (clone 56F12H8), mouse-human chimeric anti-CD73 antibody (antibody, V domains shown)
VH: EVQLVESGGDLVKPGGSLKLSCAASGFTFSTHGMSWVRQTPDKRLEWVAIISSDRSDIDYTDNVKGRFTISRDNGKNTLYLQMSSLKSEDTAIYHCARHRGYDGFYYAMDYWGQGTSVTVSS
VL: DILMTQSPSSLTVTAGEKVTMSCRSSQSLLNSGNQKNYLTWYQQRPGRPPKLLIYWASTRISGVPDRFAGSGSGTDFTLTISIVQAEDLAVYYCQNDYSYPLTFGSGTKLELR
notes: also called mAb032 chimeric antibody
B3: mab034xhIgG1TM (clone 60G1C8), mouse-human chimeric anti-CD73 antibody (antibody, V domains shown)
VH: DVQLQESGPGLVKPSQSLSLTCSVTGYSITSRYYWNWIRQFPGNKLEWMGYMTYDGTNNYNPSLTNRISITRDTSKNQFFLKLNSVTAEDTATYFCARGGWDPFDYWGQGTTLTVSS
VL: DIQMTQSPAALSASVGETVTITCRASDNIYSYLAWYQQKQGKCPQLLVKNAKTLAEGVPSRFSGSGSGTQFSLRINSLQPDDFGTYYCQHYYGTPLTFGAGTKLELK
notes: also called mAb034 chimeric antibody
B4: mab038xhIgG1TM (clone 69C9E12), mouse-human chimeric anti-CD73 antibody (antibody, V domains shown)
VH: QVQLQQPGTELVNPGASVKLSCKASGYTFTSYWMHWVKQRPGQGLEWIGNINPSNGGTHYNEKFNNKATLTVDKSSSTAYMQLSSLTSEDSAVFYCARGDYAYDWYFTVWGTGTTVTVSS
VL: DIVLTQSPASLAVSLGQRAIISCKASQSVSFAGTGLMHWYQQKPGQQPKLLIYRVSNLEAGIPTRFSGSGSRTDFTLNIHPVEEDDAATYYCQQNREFPWTFGGGTKLEIK
notes: also called mAb038 chimeric antibody
B5: mab041xhIgG1TM (clone 71E10B3), mouse-human chimeric anti-CD73 antibody (antibody, V domains shown)
VH: QVQLQQPGTELVKPGASVKLSCKASGYTFTSYWMHWVKQRPGQGLEWIGNINPSNGGTNYNQKFKSKATLTVDKSSNTASMQLSSLTSEDSAVYYCARGDYGYDWYLDVWGTGTTVTVSS
VL: B4 VL with T34P, G35S, V55T, I62V, R72G
notes: also called mAb041 chimeric antibody

Each binder was assayed against T1, human CD73 (full length, on transfected …) (assay: cell-based or functional assay).

B1 and B2 are the same in “Inhibition assay of enzyme activity, IC50” value (“Inhibition assay … IC50” below): 0.3 nM for the first, 0.3 nM for the second.

Compared with B3, B4 is 4-fold higher in “Inhibition assay … IC50” value: 0.2 nM for the first, 0.8 nM for the second.

For B5, the “Inhibition assay … IC50” value was 0.7 nM.

Going from B1 to B2, the “Inhibition assay of enzyme activity, MAX % inhibition” value (shortened to “Inhibition assay … MAX % inhibition”) rises from 60.6% to 65.1%.

Compared with B3, B4 is lower in “Inhibition assay … MAX % inhibition” value: 61.5% for the first, 52.4% for the second.

With B5 the “Inhibition assay … MAX % inhibition” value was 54.4%.

Each binder was assayed against T2, cynomolgus monkey CD73 (on transfected …) (assay: FACS on CHOK1-cCD73 cells).

Compared with B1, B2 is 1.7-fold higher in EC50: 1.5 nM for the first, 2.6 nM for the second.

Compared with B3, B4 is lower in EC50: over 10 nM for the first, 2.3 nM for the second.

B5 showed an EC50 of 2 nM.

First: B1
Second: B2
The “MAX MFI fold” value of the first is lower: 90.2 fold for the first, 167 fold for the second.

B3 and B4 cannot be ordered by “MAX MFI fold” value: over 150 fold for the first, 167 fold for the second.

In the case of B5, the “MAX MFI fold” value is reported as 167 fold.

The binders below were run against T1, human CD73 (full length, on transfected …) (assay: FACS on CHOK1-hCD73 cells).

Going from B1 to B2, the EC50 rises from 2 nM to 3.2 nM (1.6-fold).

First: B3
Second: B4
The EC50 of the first is 3.2-fold higher: 5.7 nM for the first, 1.8 nM for the second. The second is the more potent here.

For B5, the EC50 was 1.3 nM.

First: B1
Second: B2
The “MAX MFI fold” value of the first is lower: 125 fold for the first, 130 fold for the second.

Going from B3 to B4, the “MAX MFI fold” value falls from 154 fold to 120 fold.

With B5 the “MAX MFI fold” value was 127 fold.

What follows are binders tested against T3, murine CD73 (on transfected CHOK1 cells) (assay: FACS on CHOK1-mCD73 cells).

B1: no binding.
B2: no binding.
B3: no binding.
B4: no binding.
B5: no binding.

Each binder was assayed against T4, His-tagged CD73 extracellular domain … (assay: Octet BLI, antibody on AHC sensor, antigen 50-200 nM, 1:1 fit).
Excerpt: Octet Red 96 was selected as the test instrument, and AHC biosensor was selected as the test sensor in this experiment. Anti-human IgG Fc antibody has been immobilized on the AHC sensor, which can be used to directly capture the 15 antibodies in this experiment. Then the sensor was immersed in the analysis sample (antigen). There were five steps in this experiment: 1, Baseline (120 s) 2, Loading (capture antibody) (300 s) 3, Baseline (120 s) 4, Association (binding antigen) (180 s) 5, Dissociation (antigen dissociation) (1200 s). After the test was completed, the regeneration buffer (Glycine PH1.5) and the neutralization buffer (1*PBS buffer) were alternately immersed for 5 seconds, and the sensor was regenerated by a total of five cycles. The maximum number of sensor regeneration times is 10. The running buffer in this experiment is the sample diluent (1*PBS buffer containing 0.02% Tween20 and 0.1% BSA), that is, the buffer used in the Baseline step, the Dissociation step, and the blank analyte sample. Four sensors are used at one running in this experiment.
Sample treatment: all the antibodies were diluted to the working concentration of 10 ug/ml with sample diluent (1*PBS buffer containing 0.02% Tween20 and 0.1% BSA), and the analyte samples (antigens) were diluted to three working concentrations: 200 nM, 100 nM and 50 nM.
For data analysis, Octet Data Analysis (version 7.0) was used to calculate the response signal value (the signal of the coupled analyte sample minus the signal of the blank analyte sample), and a 1:1 binding model was used to fit the data.

First: B1
Second: B2
The Kd of the first is 13-fold lower: 0.0213 nM for the first, 0.279 nM for the second.

Going from B3 to B4, the Kd rises from 0.0577 nM to 0.124 nM (2.1-fold).

In the case of B5, the Kd is reported as 0.298 nM.

Going from B1 to B2, the koff rises from 6.42e-06 s⁻¹ to 1.95e-05 s⁻¹ (3-fold).

B3 and B4 are within 1.5-fold of each other in koff: 2.36e-05 s⁻¹ for the first, 2.97e-05 s⁻¹ for the second.

Binder B5 has a koff of 4.41e-05 s⁻¹.

Compared with B1, B2 is 4.3-fold lower in kon: 301000 M⁻¹ s⁻¹ for the first, 70000 M⁻¹ s⁻¹ for the second.

Going from B3 to B4, the kon falls from 409000 M⁻¹ s⁻¹ to 240000 M⁻¹ s⁻¹ (1.7-fold).

With B5 the kon was 148000 M⁻¹ s⁻¹.
